Results on three proteins are retold here after article PMC8056383, “Entropic Inhibition: How the Activity of a AAA+ Machine Is Modulated by Its Substrate-Binding Domain” (ACS Chemical Biology, 2021).

Data set [1] deals with the molecule itself. In words: native gel or EMSA; native polyacrylamide gel electrophoresis; assembly of ClpB and ΔNClpB (Figure S2).
Data set [2] concerns the molecule itself. In words: native gel or EMSA; native gel electrophoresis in the presence of 2 mM ATP; assembly of the 23C-176C construct (Figure S1). (In EMSA bound probe runs differently from free probe, usually more slowly.)

B1: ΔNClpB, Thermus thermophilus ClpB lacking the N-terminal domain (domain or fragment)
chain: not shown
notes: ClpB, Thermus thermophilus, variant beginning at residue 141 (Val); lacks the first 140 residues; In the smFRET experiments one S288C-S631C protomer labelled with AF488/AF594 sat in hexamers of unlabelled ΔNClpB; also called NTD-truncated ClpB; truncated variant; source: cloned into a pET28b vector, expressed and purified (protocol in the Supplementary Methods)
In the case of B1, the binding result in data set [1] is listed as “binds”.

B2: Thermus thermophilus ClpB, full-length (natural protein)
chain: not shown
notes: ClpB, Thermus thermophilus, full-length protein (NTD, NBD1, MD, NBD2); also called TT ClpB; TT; ClpB; source: cloned into a pET28b vector, expressed and purified (protocol in the Supplementary Methods)
Consider B2, for which, in data set [1], the binding result was “binds”.

B3: 23C-176C double-cysteine mutant of full-length ClpB, labelled with Alexa Fluor 488 and Alexa Fluor 594 (natural protein)
chain: not shown
modifications: Alexa Fluor 488 and Alexa Fluor 594 (C5 maleimide) on the cysteines at 23 and 176
notes: The ATPase assay used the fully labelled protein. smFRET and FLCS used one labelled protomer in hexamers of WT ClpB; source: cloned into a pET28b vector, expressed and purified (protocol in the Supplementary Methods)
Consider B3, for which the binding result in data set [2] was “binds”.
